From US6866851 (WASHINGTON UNIVERSITY, dated 2005)

Target: GFRα2-RET receptor complex (cells transfected with GFRα2 and expressing RET)
Assay: cell-based or functional assay

- GFRα2-RET reporter activation relative to GDNF: < 30 % of GDNF
B1: PGP-F2ac (His-Flag-PGP-F2ac, from mouse persephin and rat GDNF) (ligand)
chain: ALAHHHHHHDYKDDDDKGSCRLWSLTLPVAELGLGYASEEKVIFRYCAGSCPQEARTQHSLVLARLRGRGRAHGRPCCQPTAFDDDVTFLDDQHHYHILRKHSAAACGC
